From patent US6254870, “Thrombopoietin: IL-3 fusion protein” (G. D. Searle & Co., dated 2001)

B1: 1-153 c-mpl ligand (pMON26448) (ligand)
chain: SPAPPACDLRVLSKLLRDSHVLHSRLSQCPEVHPLPTPVLLPAVDFSLGEWKTQMEETKAQDILGAVTLLLEGVMAARGQLGPTCLSSLLGQLSGQVRLLLGALQSLLGTQLPPQGRTTAHKDPNAIFLSFQHLLRGKVRFLMLVGGSTLCVR
B2: 1-153 Δ112-115 c-mpl ligand (pMON26450) (ligand)
chain: SPAPPACDLRVLSKLLRDSHVLHSRLSQCPEVHPLPTPVLLPAVDFSLGEWKTQMEETKAQDILGAVTLLLEGVMAARGQLGPTCLSSLLGQLSGQVRLLLGALQSLLGTQGRTTAHKDPNAIFLSFQHLLRGKVRFLMLVGGSTLCVR
B3: 1-332 Δ112-115 c-mpl ligand (pMON26451-3) (ligand)
chain: SPAPPACDLRVLSKLLRDSHVLHSRLSQCPEVHPLPTPVLLPAVDFSLGEWKTQMEETKAQDILGAVTLLLEGVMAARGQLGPTCLSSLLGQLSGQVRLLLGALQSLLGTQGRTTAHKDPNAIFLSFQHLLRGKVRFLMLVGGSTLCVRRAPPTTAVPSRTSLVLTLNELPNRTSGLLETNFTASARTTGSGLLKWQQGFRAKIPGLLNQTSRSLDQIPGYLNRIHELLNGTRGLFPGPSRRTLGAPDISSGTSDTGSLPPNLQPGYSPSPTHPPTGQYTLFPLPPTLPTPVVQLHPLLPDPSAPTPTPTSPLLNTSYTHSQNLSQEG
B4: 1-332 c-mpl ligand P(46)L, W(200)R (pMON26451-4) (ligand)
chain: SPAPPACDLRVLSKLLRDSHVLHSRLSQCPEVHPLPTPVLLPAVDLSLGEWKTQMEETKAQDILGAVTLLLEGVMAARGQLGPTCLSSLLGQLSGQVRLLLGALQSLLGTQLPPQGRTTAHKDPNAIFLSFQHLLRGKVRFLMLVGGSTLCVRRAPPTTAVPSRTSLVLTLNELPNRTSGLLETNFTASARTTGSGLLKRQQGFRAKIPGLLNQTSRSLDQIPGYLNRIHELLNGTRGLFPGPSRRTLGAPDISSGTSDTGSLPPNLQPGYSPSPTHPPTPLLPDPSAPTPTPTSPLLNTSYTHSQNLSQEG

molecular target: T1, human c-mpl-R (human, UniProt P40238); test: cell-based or functional assay

Row | Binder | TF1 Proliferation Assay: total counts tritiated thymidine incorporation, 10% supernatants [total counts]
1 | B1 | 115000
2 | B2 | 60800
3 | B3 | 35600
4 | B4 | 122000

molecular target: T1, human c-mpl-R; test: cell-based or functional assay; remark: another data set of the same source

Row | Binder | Bone Marrow Proliferation Assay: Cells/Well after 10 Day Culture of CD34+ enriched cells [cells/well]
5 | B1 | 22500
6 | B2 | < 500
7 | B3 | < 500
8 | B4 | 16000
